The results in this text go back to the supplement of paper PMC10567573.

B1: DLC1 (parent)
chain: AIQGISEKEKAEIEAKEACDWLRA
B2: FUT8 (parent)
chain: YAHQPRTADEIPMEPGDIIGVAGN
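Further: lentivirally expressed fusions sorted by FACS into six bins by GFP to DsRed ratio, PSI derived from sequencing read proportions per bin multiplied by bin number.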

In the first series the parent is B1. Nature of the series: protein stability index of a GFP-peptide fusion (GPS, HEK-293T) (PSI 1-6); higher = more stable. The following applies: c terminus: a fixed tail appended.
In the case of CIQGISEKEKAEIEAKEACDWLRA [A1C], the protein stability index was 4.09.

Consider DIQGISEKEKAEIEAKEACDWLRA [A1D], for which the protein stability index was determined as 4.96.

EIQGISEKEKAEIEAKEACDWLRA [A1E]: the protein stability index turned out to be 4.74.

For the variant GIQGISEKEKAEIEAKEACDWLRA [A1G], the protein stability index stood at 4.58.

For FIQGISEKEKAEIEAKEACDWLRA [A1F], the protein stability index worked out at 3.18.

Variants of B2 are the subject of another series. The description is as above. To be noted: c terminus: a fixed tail appended.
Regarding YAHQPRTADEIPMYPGDIIGVAGN [E14Y], the protein stability index worked out at 2.27.

For the variant YAHQPRTADEIPMDPGDIIGVAGN [E14D], the protein stability index turned out to be 3.75.

Regarding YAHQPRTADEIPMRPGDIIGVAGN [E14R], the protein stability index was found to be 3.48.

In the case of YAHQPRTADEIPMPPGDIIGVAGN [E14P], the protein stability index was determined as 3.12.

As to YAHQPRTADEIPMMPGDIIGVAGN [E14M], the protein stability index turned out to be 3.25.

In the case of YAHQPRTADEIPMKPGDIIGVAGN [E14K], the protein stability index stood at 3.29.

Take YAHQPRTADEIPMESGDIIGVAGN [P15S]: the protein stability index turned out to be 3.92.

As to YAHQPRTADEIPMEQGDIIGVAGN [P15Q], the protein stability index turned out to be 4.25.

Consider YAHQPRTADEIPMEDGDIIGVAGN [P15D], for which the protein stability index worked out at 4.32.

As for YAHQPRTADEIPMEEGDIIGVAGN [P15E], the protein stability index came to 4.57.

Consider YAHQPRTADEIPMERGDIIGVAGN [P15R], for which the protein stability index came to 4.23.

For the variant YAHQPRTADEIPMEKGDIIGVAGN [P15K], the protein stability index is 4.16.

As to YAHQPRTADEIPMELGDIIGVAGN [P15L], the protein stability index was found to be 3.2.

On to YAHQPRTADEIPMEIGDIIGVAGN [P15I], for which the protein stability index is 3.5.

In the case of YAHQPRTADEIPMEPGIIIGVAGN [D17I], the protein stability index is 2.57.

For YAHQPRTADEIPMEPGRIIGVAGN [D17R], the protein stability index worked out at 3.45.

Turning to YAHQPRTADEIPMEPGEIIGVAGN [D17E], the protein stability index came to 4.24.

As for YAHQPRTADEIPMEPGQIIGVAGN [D17Q], the protein stability index turned out to be 4.14.

On to YAHQPRTADEIPMEPGLIIGVAGN [D17L], for which the protein stability index came to 2.3.

As for YAHQPRTADEIPMEPGGIIGVAGN [D17G], the protein stability index worked out at 3.38.

For YAHQPRTAEEIPMEPGDIIGVAGN [D9E], the protein stability index is 4.09.

As to YAHQPRTAKEIPMEPGDIIGVAGN [D9K], the protein stability index was determined as 3.51.

Take YAHQPRTAVEIPMEPGDIIGVAGN [D9V]: the protein stability index was 2.52.

YAHQPRTASEIPMEPGDIIGVAGN [D9S]: the protein stability index came to 3.67.

For YAHQPRTAIEIPMEPGDIIGVAGN [D9I], the protein stability index is 2.6.

On to YAHQPRTAMEIPMEPGDIIGVAGN [D9M], for which the protein stability index is 3.74.

YAHQPRTRDEIPMEPGDIIGVAGN [A8R]: the protein stability index was 3.89.

With YAHQPRTFDEIPMEPGDIIGVAGN [A8F], the protein stability index is 3.48.

On to YAHQPRTWDEIPMEPGDIIGVAGN [A8W], for which the protein stability index was found to be 2.78.

Turning to YAHQPRTCDEIPMEPGDIIGVAGN [A8C], the protein stability index turned out to be 3.44.

Take YAHQPRTKDEIPMEPGDIIGVAGN [A8K]: the protein stability index stood at 3.88.

As for YAHQPRTIDEIPMEPGDIIGVAGN [A8I], the protein stability index worked out at 4.02.

Regarding YAHQPRTPDEIPMEPGDIIGVAGN [A8P], the protein stability index came out at 4.32.

On to YAHQPRTNDEIPMEPGDIIGVAGN [A8N], for which the protein stability index came to 4.22.

Consider YAHQPRTYDEIPMEPGDIIGVAGN [A8Y], for which the protein stability index is 3.15.

In the case of YAHQPRTTDEIPMEPGDIIGVAGN [A8T], the protein stability index was 4.24.

Take YAHQPRTHDEIPMEPGDIIGVAGN [A8H]: the protein stability index stood at 3.87.

Take YAHQPRTADEIPMEPGDIIGMAGN [V21M]: the protein stability index was 3.68.

Turning to YAHQPRTADEIPMEPGDIIGYAGN [V21Y], the protein stability index is 3.82.

YAHQPRTADEIPMEPGDIIGAAGN [V21A]: the protein stability index worked out at 4.33.

Turning to YAHQPRTADEIPMEPGDIIGRAGN [V21R], the protein stability index was found to be 3.47.

In the case of YAHQPRTADEIPMEPGDIIGSAGN [V21S], the protein stability index worked out at 4.05.

YAHQPRTADEIPMEPGDIIGPAGN [V21P]: the protein stability index is 4.13.

As for YAHQPRTADEIPMEPGDIIGEAGN [V21E], the protein stability index is 4.62.

With YAHQPRTADEIPMEPGDIIGCAGN [V21C], the protein stability index was determined as 4.

With YAHQPRTADEIPMEPGDIIGGAGN [V21G], the protein stability index worked out at 4.29.

YAHQPRTADEIPMEPGDIIGFAGN [V21F]: the protein stability index was found to be 3.8.

As for YAHQPRTADEIMMEPGDIIGVAGN [P12M], the protein stability index turned out to be 3.58.

For the variant YAHQPRTADEIAMEPGDIIGVAGN [P12A], the protein stability index stood at 4.23.

Take YAHQPRTADEISMEPGDIIGVAGN [P12S]: the protein stability index was 4.08.

For the variant YAHQPRTADEILMEPGDIIGVAGN [P12L], the protein stability index came out at 3.57.

Regarding YAHQPRTADEIDMEPGDIIGVAGN [P12D], the protein stability index is 4.2.

With YAHQPRTADEIHMEPGDIIGVAGN [P12H], the protein stability index was determined as 3.41.

Consider YAHQPRTADEIGMEPGDIIGVAGN [P12G], for which the protein stability index was found to be 3.6.

Consider PAHQPRTADEIPMEPGDIIGVAGN [Y1P], for which the protein stability index was found to be 5.26.

Turning to DAHQPRTADEIPMEPGDIIGVAGN [Y1D], the protein stability index was 5.19.

For the variant KAHQPRTADEIPMEPGDIIGVAGN [Y1K], the protein stability index turned out to be 5.

Regarding WAHQPRTADEIPMEPGDIIGVAGN [Y1W], the protein stability index was 4.52.

Take HAHQPRTADEIPMEPGDIIGVAGN [Y1H]: the protein stability index was found to be 5.37.

As for NAHQPRTADEIPMEPGDIIGVAGN [Y1N], the protein stability index worked out at 4.75.

In the case of VAHQPRTADEIPMEPGDIIGVAGN [Y1V], the protein stability index was 4.28.

Regarding QAHQPRTADEIPMEPGDIIGVAGN [Y1Q], the protein stability index was determined as 5.12.

Consider MAHQPRTADEIPMEPGDIIGVAGN [Y1M], for which the protein stability index came out at 5.19.

Take YAHHPRTADEIPMEPGDIIGVAGN [Q4H]: the protein stability index stood at 3.92.

Regarding YAHLPRTADEIPMEPGDIIGVAGN [Q4L], the protein stability index came out at 4.26.

YAHVPRTADEIPMEPGDIIGVAGN [Q4V]: the protein stability index is 3.5.

For the variant YAHRPRTADEIPMEPGDIIGVAGN [Q4R], the protein stability index came out at 3.06.

For the variant YAHWPRTADEIPMEPGDIIGVAGN [Q4W], the protein stability index amounted to 1.98.

In the case of YAHPPRTADEIPMEPGDIIGVAGN [Q4P], the protein stability index turned out to be 3.52.

As for YAHSPRTADEIPMEPGDIIGVAGN [Q4S], the protein stability index amounted to 3.8.

With YAHQPMTADEIPMEPGDIIGVAGN [R6M], the protein stability index worked out at 3.84.

On to YAHQPWTADEIPMEPGDIIGVAGN [R6W], for which the protein stability index stood at 2.62.

For the variant YAHQPATADEIPMEPGDIIGVAGN [R6A], the protein stability index was 4.48.

Consider YAHQPPTADEIPMEPGDIIGVAGN [R6P], for which the protein stability index stood at 4.78.

For YAHQPTTADEIPMEPGDIIGVAGN [R6T], the protein stability index is 4.59.

Regarding YAHQPHTADEIPMEPGDIIGVAGN [R6H], the protein stability index is 4.25.

In the case of YAHQPDTADEIPMEPGDIIGVAGN [R6D], the protein stability index was found to be 4.54.

With YAHQPYTADEIPMEPGDIIGVAGN [R6Y], the protein stability index is 3.73.

As to YAHQPRTADEIPMEPGDIIGVAEN [G23E], the protein stability index came out at 4.83.

On to YAHQPRTADEIPMEPGDIIGVAVN [G23V], for which the protein stability index came out at 3.58.

For YAHQPRTADEIPMEPGDIIGVAPN [G23P], the protein stability index turned out to be 3.73.

For the variant YAHQPRTADEIPMEPGDIIGVAWN [G23W], the protein stability index was determined as 2.67.

For YAHQPRTADEIPMEPGDIIGVAHN [G23H], the protein stability index stood at 3.99.

YAHQPRTADEIPMEPGDIIGVATN [G23T]: the protein stability index stood at 3.87.

On to YAHQPRTADEIPMEPGDIIGVCGN [A22C], for which the protein stability index was 3.14.

As to YAHQPRTADEIPMEPGDIIGVQGN [A22Q], the protein stability index was found to be 4.31.

For the variant YAHQPRTADEIPMEPGDIIGVEGN [A22E], the protein stability index came out at 3.92.

Regarding YAHQPRTADEIPMEPGDIIGVYGN [A22Y], the protein stability index stood at 3.27.

Take YAHQPRTADEIPMEPGDIIGVNGN [A22N]: the protein stability index turned out to be 4.38.
